Assay results from PMC3785238 (Cell, 2013).
Non-standard residues stand in square brackets, D forms with d. No end group written: not given here. pT = C[C@@H](OP(=O)(O)O)[C@H](N)C(=O)O; pS = N[C@@H](COP(=O)(O)O)C(=O)O

T1: Homer1c, full-length, recombinant (UniProt Q9Z214 1-366)
T1 sequence (looked up): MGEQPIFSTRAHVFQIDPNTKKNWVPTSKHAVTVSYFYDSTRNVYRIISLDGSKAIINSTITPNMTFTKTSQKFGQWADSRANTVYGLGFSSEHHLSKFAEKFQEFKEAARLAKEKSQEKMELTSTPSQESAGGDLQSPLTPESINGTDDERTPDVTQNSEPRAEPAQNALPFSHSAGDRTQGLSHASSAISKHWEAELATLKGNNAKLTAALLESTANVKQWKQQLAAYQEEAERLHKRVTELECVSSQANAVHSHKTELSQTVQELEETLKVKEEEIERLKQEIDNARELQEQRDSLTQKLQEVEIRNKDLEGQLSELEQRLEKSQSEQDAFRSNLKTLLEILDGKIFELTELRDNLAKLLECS

B1: mGluR5 peptide spanning the Homer/Pin1 binding site, bacterially expressed, phosphorylated at T1123 and S1126 (peptide)
chain: KELVAL[pT]PP[pS]PFRD

Tests used:
[1] = molecular target: Homer1a, full length, recombinant; test: ITC + NMR titration
[2] = molecular target: Homer1a, full length, recombinant; test: ITC
[3] = molecular target: T1, Homer1c, full-length, recombinant; test: ITC
[4] = molecular target: B1

| Binder | Kd, calc cis [1] [nM] | Kd, calc trans [1] [nM] | Kd [2] [nM] | Kd [3] [nM] | Kd [4] [nM] |
| --- | --- | --- | --- | --- | --- |
| B1 | 160 | 760 | 470 ± 100 |  |  |
| KELVALTPP[pS]PFRD [mGluR5 peptide spanning the Homer/Pin1 binding site, bacterially expressed, phosphorylated at S1126] | 670 | 2190 | 1560 ± 160 | 1910 ± 190 |  |
| EKLPPGWEKRMSRSSGRVYYFNHITNASQWERPSG (domain or fragment, UniProt Q13526 5-39, looked up) [WW domain of Pin1] |  |  |  |  | 10700 ± 200 |
